Results from US20180362668.
“And” between values parts separate entries of the source, which are not always exact repeats. Equal values may be shown once.

Experiments:
[1] = target: T1, VhH-Fc fusion protein chain B with T366S + L368A + Y407V + F405K + E357A; experiment: non-reducing SDS-PAGE densitometry of Protein A-purified co-transfection product; chain A:chain B vectors 1:4
[2] = target: T1, VhH-Fc fusion protein chain B with …; experiment: non-reducing SDS-PAGE densitometry of Protein A-purified co-transfection product; chain A:chain B vectors 4:1
[3] = target: T2, VhH-Fc fusion protein chain B with T366S + L368A + Y407V + K409A + E357A; experiment: non-reducing SDS-PAGE densitometry of Protein A-purified co-transfection product; chain A:chain B vectors 1:4
[4] = target: T2, VhH-Fc fusion protein chain B with …; experiment: non-reducing SDS-PAGE densitometry of Protein A-purified co-transfection product; chain A:chain B vectors 4:1
[5] = target: Fc protein chain B with D356C + T366S + L368A + Y407V; experiment: non-reducing SDS-PAGE of Protein A-purified co-transfection product; chain A:chain B vectors 1:4
[6] = target: Fc protein chain B with D356C + T366S + L368A + Y407V; experiment: non-reducing SDS-PAGE of Protein A-purified co-transfection product; chain A:chain B vectors 4:1
[7] = target: Fc protein chain B with D356C + T366S + L368A + Y407V + F405K; experiment: non-reducing SDS-PAGE densitometry of Protein A-purified co-transfection product; chain A:chain B vectors 1:1
[8] = target: T3, VhH-Fc fusion protein chain B with T366S + L368A + Y407V + K409A + K392D; experiment: non-reducing SDS-PAGE densitometry of Protein A-purified co-transfection product; chain A:chain B vectors 1:4
[9] = target: T3, VhH-Fc fusion protein chain B with …; experiment: non-reducing SDS-PAGE densitometry of Protein A-purified co-transfection product; chain A:chain B vectors 4:1
[10] = target: T4, VhH-Fc fusion protein chain B with D356C + T366S + L368A + Y407V; experiment: non-reducing SDS-PAGE densitometry of Protein A-purified co-transfection product; chain A:chain B vectors 1:4
[11] = target: T4, VhH-Fc fusion protein chain B with …; experiment: non-reducing SDS-PAGE densitometry of Protein A-purified co-transfection product; chain A:chain B vectors 4:1
[12] = target: Fc protein chain B with D356C + T366S + L368A + Y407V; experiment: non-reducing SDS-PAGE densitometry of Protein A-purified co-transfection product; chain A:chain B vectors 1:1
[13] = target: T5, VhH-Fc fusion protein chain B with T366S + L368G + Y407A + K409A; experiment: non-reducing SDS-PAGE densitometry of Protein A-purified co-transfection product; chain A:chain B vectors 1:4
[14] = target: T5, VhH-Fc fusion protein chain B with …; experiment: non-reducing SDS-PAGE densitometry of Protein A-purified co-transfection product; chain A:chain B vectors 4:1

B1: ScFv-Fc fusion protein chain A with T366W + K409A + Y349D + S354D (protein)
chain: EVQLLESGGGVVQPGRSLRLSCIASGFTFSSYPMTWVRQAPGKGLEWVASISYDGSYKYKADSMKGRLTISRDNSKNTLYLEMNSLTAEDTAVYYCARTAFFNAYDFWGQGTLVTVSSASTKGPSVGGGGSGGGGSEIVMTQSPATLSVSPGERATLSCRASQSVRSNLAWYQQKPGQAPRLLIYAASTRATGIPARFSGSGSGTEFTLTISSLQSEDFAVYYCQQYNEWFRTSGQGTKVEIKRDKTHTCPPCPAPELLGGPSVFLFPPKPKDTLMISRTPEVTCVVVDVSHENPEVKFNWYVDGVEVHNAKTKPREEQYNSTYRVVSVLTVLHQDWLNGKEYKCKVSNKALPAPIEKTISKAKGQPREPQVDTLPPDRDELTKNQVSLWCLVKGFYPSDIAVEWESNGQPENNYKTTPPVLDSDGSFFLYSALTVDKSRWQQGNVFSCSVMHEALHNHYTQKSLSLSPGK
ScFv-Fc/VhH-Fc heterodimer (%) [1]: 64%
ScFv-Fc/VhH-Fc heterodimer (%) [2]: 61%

B2: ScFv-Fc fusion protein chain A with T366W + F405K + Y349D + S354D (protein)
chain: EVQLLESGGGVVQPGRSLRLSCIASGFTFSSYPMTWVRQAPGKGLEWVASISYDGSYKYKADSMKGRLTISRDNSKNTLYLEMNSLTAEDTAVYYCARTAFFNAYDFWGQGTLVTVSSASTKGPSVGGGGSGGGGSEIVMTQSPATLSVSPGERATLSCRASQSVRSNLAWYQQKPGQAPRLLIYAASTRATGIPARFSGSGSGTEFTLTISSLQSEDFAVYYCQQYNEWFRTSGQGTKVEIKRDKTHTCPPCPAPELLGGPSVFLFPPKPKDTLMISRTPEVTCVVVDVSHENPEVKFNWYVDGVEVHNAKTKPREEQYNSTYRVVSVLTVLHQDWLNGKEYKCKVSNKALPAPIEKTISKAKGQPREPQVDTLPPDRDELTKNQVSLWCLVKGFYPSDIAVEWESNGQPENNYKTTPPVLDSDGSFKLYSKLTVDKSRWQQGNVFSCSVMHEALHNHYTQKSLSLSPGK
ScFv-Fc/VhH-Fc heterodimer (%) [3]: 86%
ScFv-Fc/VhH-Fc heterodimer (%) [4]: 61%

B3: ScFv-Fc fusion protein chain A with Y349C + T366W (protein)
chain: EVQLLESGGGVVQPGRSLRLSCIASGFTFSSYPMTWVRQAPGKGLEWVASISYDGSYKYKADSMKGRLTISRDNSKNTLYLEMNSLTAEDTAVYYCARTAFFNAYDFWGQGTLVTVSSASTKGPSVGGGGSGGGGSEIVMTQSPATLSVSPGERATLSCRASQSVRSNLAWYQQKPGQAPRLLIYAASTRATGIPARFSGSGSGTEFTLTISSLQSEDFAVYYCQQYNEWFRTSGQGTKVEIKRDKTHTCPPCPAPELLGGPSVFLFPPKPKDTLMISRTPEVTCVVVDVSHENPEVKFNWYVDGVEVHNAKTKPREEQYNSTYRVVSVLTVLHQDWLNGKEYKCKVSNKALPAPIEKTISKAKGQPREPQVCTLPPSRDELTKNQVSLWCLVKGFYPSDIAVEWESNGQPENNYKTTPPVLDSDGSFFLYSKLTVDKSRWQQGNVFSCSVMHEALHNHYTQKSLSLSPGK
ScFv-Fc/Fc heterodimer (%) [5]: 44%
ScFv-Fc/Fc heterodimer (%) [6]: 42%

B4: ScFv-Fc fusion protein chain A with Y349C + T366W + K409A + L368E (protein)
chain: EVQLLESGGGVVQPGRSLRLSCIASGFTFSSYPMTWVRQAPGKGLEWVASISYDGSYKYKADSMKGRLTISRDNSKNTLYLEMNSLTAEDTAVYYCARTAFFNAYDFWGQGTLVTVSSASTKGPSVGGGGSGGGGSEIVMTQSPATLSVSPGERATLSCRASQSVRSNLAWYQQKPGQAPRLLIYAASTRATGIPARFSGSGSGTEFTLTISSLQSEDFAVYYCQQYNEWFRTSGQGTKVEIKRDKTHTCPPCPAPELLGGPSVFLFPPKPKDTLMISRTPEVTCVVVDVSHENPEVKFNWYVDGVEVHNAKTKPREEQYNSTYRVVSVLTVLHQDWLNGKEYKCKVSNKALPAPIEKTISKAKGQPREPQVCTLPPSRDELTKNQVSLWCEVKGFYPSDIAVEWESNGQPENNYKTTPPVLDSDGSFFLYSALTVDKSRWQQGNVFSCSVMHEALHNHYTQKSLSLSPGK
ScFv-Fc/Fc heterodimer (%) [7]: 30%

B5: ScFv-Fc fusion protein chain A with T366W + K409A + Y349D (protein)
chain: EVQLLESGGGVVQPGRSLRLSCIASGFTFSSYPMTWVRQAPGKGLEWVASISYDGSYKYKADSMKGRLTISRDNSKNTLYLEMNSLTAEDTAVYYCARTAFFNAYDFWGQGTLVTVSSASTKGPSVGGGGSGGGGSEIVMTQSPATLSVSPGERATLSCRASQSVRSNLAWYQQKPGQAPRLLIYAASTRATGIPARFSGSGSGTEFTLTISSLQSEDFAVYYCQQYNEWFRTSGQGTKVEIKRDKTHTCPPCPAPELLGGPSVFLFPPKPKDTLMISRTPEVTCVVVDVSHENPEVKFNWYVDGVEVHNAKTKPREEQYNSTYRVVSVLTVLHQDWLNGKEYKCKVSNKALPAPIEKTISKAKGQPREPQVDTLPPSRDELTKNQVSLWCLVKGFYPSDIAVEWESNGQPENNYKTTPPVLDSDGSFFLYSALTVDKSRWQQGNVFSCSVMHEALHNHYTQKSLSLSPGK
ScFv-Fc/VhH-Fc heterodimer (%) [1]: 60%
ScFv-Fc/VhH-Fc heterodimer (%) [2]: 49%

B6: ScFv-Fc fusion protein chain A with T366W + F405K + D399S (protein)
chain: EVQLLESGGGVVQPGRSLRLSCIASGFTFSSYPMTWVRQAPGKGLEWVASISYDGSYKYKADSMKGRLTISRDNSKNTLYLEMNSLTAEDTAVYYCARTAFFNAYDFWGQGTLVTVSSASTKGPSVGGGGSGGGGSEIVMTQSPATLSVSPGERATLSCRASQSVRSNLAWYQQKPGQAPRLLIYAASTRATGIPARFSGSGSGTEFTLTISSLQSEDFAVYYCQQYNEWFRTSGQGTKVEIKRDKTHTCPPCPAPELLGGPSVFLFPPKPKDTLMISRTPEVTCVVVDVSHENPEVKFNWYVDGVEVHNAKTKPREEQYNSTYRVVSVLTVLHQDWLNGKEYKCKVSNKALPAPIEKTISKAKGQPREPQVYTLPPSRDELTKNQVSLWCLVKGFYPSDIAVEWESNGQPENNYKTTPPVLSSDGSFKLYSKLTVDKSRWQQGNVFSCSVMHEALHNHYTQKSLSLSPGK
ScFv-Fc/VhH-Fc heterodimer (%) [8]: 69%
ScFv-Fc/VhH-Fc heterodimer (%) [9]: 66%

B7: ScFv-Fc fusion protein chain A with Y349C + T366W + F405K (protein)
chain: EVQLLESGGGVVQPGRSLRLSCIASGFTFSSYPMTWVRQAPGKGLEWVASISYDGSYKYKADSMKGRLTISRDNSKNTLYLEMNSLTAEDTAVYYCARTAFFNAYDFWGQGTLVTVSSASTKGPSVGGGGSGGGGSEIVMTQSPATLSVSPGERATLSCRASQSVRSNLAWYQQKPGQAPRLLIYAASTRATGIPARFSGSGSGTEFTLTISSLQSEDFAVYYCQQYNEWFRTSGQGTKVEIKRDKTHTCPPCPAPELLGGPSVFLFPPKPKDTLMISRTPEVTCVVVDVSHENPEVKFNWYVDGVEVHNAKTKPREEQYNSTYRVVSVLTVLHQDWLNGKEYKCKVSNKALPAPIEKTISKAKGQPREPQVCTLPPSRDELTKNQVSLWCLVKGFYPSDIAVEWESNGQPENNYKTTPPVLDSDGSFKLYSKLTVDKSRWQQGNVFSCSVMHEALHNHYTQKSLSLSPGK
ScFv-Fc/VhH-Fc heterodimer (%) [10]: 39%
ScFv-Fc/Fc heterodimer (%) [5]: 49%
ScFv-Fc/Fc heterodimer (%) [6]: 66%
ScFv-Fc/VhH-Fc heterodimer (%) [11]: 55%
ScFv-Fc/Fc heterodimer (%) [12]: 60% and 70%

B8: ScFv-Fc fusion protein chain A with T366W + F405K (protein)
chain: EVQLLESGGGVVQPGRSLRLSCIASGFTFSSYPMTWVRQAPGKGLEWVASISYDGSYKYKADSMKGRLTISRDNSKNTLYLEMNSLTAEDTAVYYCARTAFFNAYDFWGQGTLVTVSSASTKGPSVGGGGSGGGGSEIVMTQSPATLSVSPGERATLSCRASQSVRSNLAWYQQKPGQAPRLLIYAASTRATGIPARFSGSGSGTEFTLTISSLQSEDFAVYYCQQYNEWFRTSGQGTKVEIKRDKTHTCPPCPAPELLGGPSVFLFPPKPKDTLMISRTPEVTCVVVDVSHENPEVKFNWYVDGVEVHNAKTKPREEQYNSTYRVVSVLTVLHQDWLNGKEYKCKVSNKALPAPIEKTISKAKGQPREPQVYTLPPSRDELTKNQVSLWCLVKGFYPSDIAVEWESNGQPENNYKTTPPVLDSDGSFKLYSKLTVDKSRWQQGNVFSCSVMHEALHNHYTQKSLSLSPGK
ScFv-Fc/VhH-Fc heterodimer (%) [13]: 93%
ScFv-Fc/VhH-Fc heterodimer (%) [14]: 77%
